The text below walks through data of PMC8009872, “Beam image-shift accelerated data acquisition for near-atomic resolution single-particle cryo-electron tomography” (Nature Communications, 2021).

The series deals with the molecule itself. The series can be described thus: cryo-EM structure.

B1: protein VC1979 of Vibrio cholerae (dNTPase) (enzyme)
chain: QVSLNPEWLARNNDEHKIRRNDHRSPFQRDRARILHSAAFRRLQAKTQVHGTSLNDFHRTRLTHSLEAAQIGTGIVAQIKLKQPEFRELLPSDSLIDSLCLAHDIGHPPYGHGGEIALNYMMRDHGGFEGNAQTFRIVTSLEPYTEHHGMNLSRRTLLGLLKYPALLSATRAAIPPPAVAHQRQLKAKDWSPAKGIYDCDLASLDWVLEPLCESDRELLGQMRAEPSSPKEHRKTRFKSLDCSIMELADDIAYGVHDLEDAIVLGMVTRAQWQEAAAAQLAECGDPWFEEHIAELSEMLFSGKHYVRKDAIGGIVNALLTSISVKPVEAPFHNELLAFNAYIEPHMGNALEVLKHFVSQYVIQIPQVQRFEYKGQQLIMDLFEALSADPERLLPQATGEKWRKAQEQDEGMRVICDYIAAMTDAYAQRLHQQLFSAQSHY
B1: the stoichiometry N (usually the number of molecules, sites or subunits per partner or assembly) amounted to 6.
